Laboratory results taken from patent US20140011747A1 (WISCONSIN ALUMNI RESEARCH FOUNDATION, published 2014).
One block for each binder: values may come before it. Ends that are not written are not given here.

How the values were obtained:
[1] = biological target: T1, epidermal growth factor receptor (EGFR), endogenous in human cell lines (human, UniProt P00533 25-1210); test: co-immunoprecipitation from lysates of MCF10A and BT474 cells, western blot
T1 construct: whole, on cells; Detected on western blots of lysate precipitates; also called ErbB-1; HER1
Protocol: (§1) Cells were washed once with washing buffer (50 mM Hepes, 50 mM NaCl and 10 mM EDTA, pH 7.4) and lysed for 20 min on ice in 1% Triton X-100 containing a 1:1000 dilution of protease inhibitor mixture set III (Calbiochem) in washing buffer. Cell debris was removed by centrifugation at 20,000 g for 15 min at 4° C. […] Visualization of immune-reactive bands was performed using ECF reagent (GE Healthcare) and scanned on a Typhoon Trio Variable Mode Imager (GE-Healthcare) in blue fluorescence.

[2] = biological target: T1, epidermal growth factor receptor …; test: cell-based or functional assay
[3] = biological target: T2, β4^R1733A mutant of the β4 cytoplasmic domain (binding construct) (human, UniProt P16144-2 1677-1752); test: binding of β4 cytoplasmic domain mutants to syndecan
T2 construct: not shown: 6×His tag and leader of the pTRC-His A vector
T2 sequence (looked up): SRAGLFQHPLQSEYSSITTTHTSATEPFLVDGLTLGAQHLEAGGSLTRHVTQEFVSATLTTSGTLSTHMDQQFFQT

[4] = biological target: T1, epidermal growth factor receptor …; test: co-immunoprecipitation of mouse syndecan chimeras from HaCat cells, western blot
Protocol: (FIG. 6A) Mouse syndecan chimeras in which their ectodomains are switched are expressed in HaCat cells, then immunoprecipitated with antibodies specific for the mouse syndecan ectodomains. […] HER2 or EGFR are immunoprecipitated from the lysates directly for comparison.
as §1

B2: SSTNEGFR, synthetic peptide of amino acids 87-131 of the human Sdc4 ectodomain (peptide)
peptide: NHIPERAGSGSQVPTEPKKLEENEVIPKRISPVEESEDVSNKVSM
IC50, EGF-stimulated migration of MCF10A cells, scratch wound closure [2]: 100 to 300 nM

B4: mouse syndecan chimera: mSdc4 with its ectodomain swapped for that of Sdc1 (receptor, UniProt P18828 23-255, looked up)
chain: QIVAVNVPPEDQDGSGDDSDNFSGSGTGALPDTLSRQTPSTWKDVWLLTATPTAPEPTSSNTETAFTSVLPAGEKPEEGEPVLHVEAEPGFTARDKEKEVTTRPRETVQLPITQRASTVRVTTAQAAVTSHPHGGMQPGLHETSAPTAPGQPDHQPPRVEGGGTSVIKEVVEDGTANQLPAGEGSGEQDFTFETSGENTAVAAVEPGLRNQPPVDEGATGASQSLLDRKEVLGVLAALIVGGVVGILFAVFLILLLVYRMKKKDEGSYDLGKKPIYKKAPTNEFYA
notes: extracellular domain;domain: transmembrane and cytoplasmic domains; Expressed in HaCat cells; also called Sdc4 displaying the Sdc1 ectodomain
binding result [4]: no binding

B5: SSTNEGFR synthetic peptide with amino acids 99-108 mutated to alanine (peptide)
peptide: NHIPERAGSGSQAAAAAAAAAANEVIPKRISPVEESEDVSNKVSM
activity against EGF-stimulated cell migration, relative to SSTNEGFR [2]: 10 fold reduction

B6: SSTNEGFR synthetic peptide truncated of amino acids 126-131 (peptide)
peptide: NHIPERAGSGSQVPTEPKKLEENEVIPKRISPVEESEDV
activity against EGF-stimulated cell migration, relative to SSTNEGFR [2]: ≥ 100 fold reduction

Further lines, results first:

binding result [1]: no binding
B1: syndecan-1 (Sdc1), human, endogenous in human cell lines (receptor, UniProt P18827 23-310, looked up)
chain: QIVATNLPPEDQDGSGDDSDNFSGSGAGALQDITLSQQTPSTWKDTQLLTAIPTSPEPTGLEATAASTSTLPAGEGPKEGEAVVLPEVEPGLTAREQEATPRPRETTQLPTTHLASTTTATTAQEPATSHPHRDMQPGHHETSTPAGPSQADLHTPHTEDGGPSATERAAEDGASSQLPAAEGSGEQDFTFETSGENTAVVAVEPDRRNQSPVDQGATGASQGLLDRKEVLGGVIAGGLVGLIFAVCLVGFMLYRMKKKDEGSYSLEEPKQANGGAYQKPTKQEEFYA
notes: whole, on cells; Used as the comparison for Sdc4 in co-immunoprecipitation

binding result [3]: no binding
B3: GST-S1CD, Sdc1 cytoplasmic domain fused to GST (other)
chain: {GST}-RMKKKDEGSYSLEEPKQANGGAYQKPTKQEEFYA
notes: The result sentences say only Sdc1; not shown: glutathione S-transferase (GST) fusion partner

IC50, EGF-stimulated chemotaxis of MCF10A cells or HaCat keratinocytes [2]: 100 to 300 nM
B7: GST-S4ED, recombinant Sdc4 ectodomain fused to GST (other, UniProt P31431 19-145, looked up, not shown: a dimerising Fc or GST)
chain: ESIRETEVIDPQDLLEGRYFSGALPDDEDVVGPGQESDDFELSGSGDLDDLEDSMIGPEVVHPLVPLDNHIPERAGSGSQVPTEPKKLEENEVIPKRISPVEESEDVSNKVSMSSTVQGSNIFERTE
